Results on 8 molecules are retold here after patent US10962528B2, “Blue fluorescent protein monomers and uses thereof” (WISYS TECHNOLOGY FOUNDATION, INC., priority 2015, dated 2021).

Series [1] can be described thus: Photobleaching / photo-stability studies. Type of series: physicochemical. The procedure:
FIGS. 11C-11D (C) Titration of apo-SFP (20 uM) with BV IXα measured at 675 nm with λex=375 nm (green) and 630 nm (red). (D) Photo-bleaching kinetics of Sandercyanin and free-biliverdin (BV).
(§1) All experiments were performed with purified SFP samples (apo and holo forms) at pH 7.5 and room temperature. UV-Visible absorbance spectra of native and recombinant SFP were recorded from 800 to 200 nm with ultraspec 2100 pro spectrophotometer from Amersham Biosciences. CD spectra were measured on JASCO J-815 Spectropolarimeter. Steady state fluorescence, excitation, binding and photobleaching studies were monitored on Horiba Jobin Yvon Fluoromax-4 fluorimeter. Data analysis were done using Origin6 and Origin8 software. Hydrogen was exchanged with Deuterium by increasing concentrations of D2O to a standard protein concentration. Deuteriated proteins were prepared in the same buffer, incubated for 15 minutes, and monitored for spectral properties.

A short description of series [2]: Fluorescence of free biliverdin in different solvent conditions. Type of series: physicochemical. To be noted: increased hydrophobicity of the medium. An excerpt:
FIG. 11F Effect of hydrophobicity of solvent on fluorescence spectra of biliverdin monitored at excitation wavelengths of (left) 375 nm and (right) 600 nm. Labels are biliverdin in DMSO 1150, biliverdin in acetone 1152, biliverdin in ethanol 1154, biliverdin in benzene 1156, and biliverdin in toluene 1158.
FIG. 11G Effect of viscosity of solvent (PEG 400) on fluorescence spectra of biliverdin monitored at excitation wavelengths of (left) 375 nm and (right) 600 nm. Labels are 0% PEG400 1160, 5% PEG400 1162, 10% PEG400 1164, and 15% PEG400 1166.
We performed experiments with free biliverdin in different solvents conditions, to understand the molecular basis of the observed fluorescent properties of Sandercyanin-BV complex. […] A similar trend was observed on increasing the viscosity of medium with increased polyethylene glycol and changing the pH of medium to pH 8.8-9.5.

The subject of a further series is apoSFP. Description: Binding of apoSFP with other tetrapyrroles monitored by fluorescence. Set-up: species or system Sander vitreus. As to conditions: excitation at 375 nm and 630 nm. An excerpt:
FIG. 11E Binding of apoSFP with other tetrapyrroles monitored by fluorescence on excitation at (left) 375 nm and (right) 630 nm.
To examine the specificity of Sandercyanin to bilverdin IXa, we tested other BV-like tetrapyrrol compounds: hemin, bilirubin, and esterified BV derivatives.

A short description of series [3]: Steady state fluorescence spectra and quantum yield. The series is classed as physicochemical. To be noted: for Quantum yield / Ex/Em1, emission / Ex/Em1, excitation: in complex with biliverdin; for brightness relative to L135E monoSFP: glycine loop extension. On the procedure: as §1
Characterization of monoSFP Variants—MonoSFP variants were characterized by size-exclusion chromatography during purification of the proteins. We further characterized the spectral properties and binding-efficiencies of a few of these monoSFPs (Tables 2 and 4), and found them to be similar to wild-type SFP (FIG. 2, FIG. 3, Table 4). They have far-red to near infra-red fluorescence with large Stokes shift. […] To test this, we performed detergent (Triton X-100) assays with the monoSFPs and measured absorbance and fluorescence spectra. Further, we made attempts to extend one of the loops which encloses biliverdin in the centre of the protein. Two mutants, FH88insGG and VP95insGG, were extended with glycine residues at the 88th and 95th positions in the amino acid chain of L135E monoSFP mutant. One hypothesis was that extension would prevent photon loss due to solvent exposure of the ligand and enhance the quantum efficiency.

Series [4] in a line: UV-Visible absorbance spectra. Type of series: physicochemical. On the procedure:
as §1, with “All experiments were performed with purified SFP samples (apo and holo forms) at pH 7.5 and room temperature.” left out

For series [5] the following is noted: excitation at 380 nm and 630 nm, Yu et al. 2008; cited from earlier work.
Series [6] is described as follows: Biliverdin binding of SFP and monomeric variants (fluorescence titration, UV-visible absorbance). The procedure:
as §1
All SFP variants were expressed using E. coli BL21*(DE3) cells. […] Thus, refolded purified SFP was checked using an analytical gel filtration column for oligomerization state and biliverdin (BV) binding by UV-visible absorbance and fluorescence spectroscopy (FIGS. 1A-1D).
Characterization of monoSFP Variants—MonoSFP variants were characterized by size-exclusion chromatography during purification of the proteins. […] They have far-red to near infra-red fluorescence with large Stokes shift. […] To test this, we performed detergent (Triton X-100) assays with the monoSFPs and measured absorbance and fluorescence spectra. […]

For `C=CC1=C(C)/C(=C/C2=NC(=C\c3[nH]c(/C=C4\NC(=O)C(C)=C4C=C)c(C)c3CCC(=O)O)/C(CCC(=O)O)=C2C)NC1=O` [Biliverdin, Biliverdin IXα, reference compound], the “bleaching of free form relative to complex with Sandercyanin” value in series [1] is reported as “bleaches faster”. Besides, in series [2], the “far red fluorescence of free biliverdin” value is “enhanced far red fluorescence”.

Turning to `C=CC1=C(C)c2cc3[n-]c(cc4[n-]c(cc5nc(cc1n2)C(C)=C5C=C)c(C)c4CCC(=O)O)c(CCC(=O)O)c3C.[Cl-].[Fe+3]` [hemin], the “binding and fluorescence with Sandercyanin” value with apoSFP is “does not show binding and fluorescence”.

B1: Wild-type SFP: Sandercyanin fluorescent protein from walleye Sander vitreus mucus, biliverdin-binding lipocalin tetramer; SEQ ID NO:1 (recombinant SEQ ID NO:31) (protein, listed as Sander vitreus)
chain: MNAIQVISLTLLSVLAAKAMFIKPGRCPKPAVQEDFDAARYLGVWYDIQRLPNKFQKGECATATYSLSPGVGFSVFNRERLANGTIKSVIGSAIAEDPCEPAKLQFFHENAAPVPYWVLSTDYDNYALVYSCINLGASHAAYASIVSRQPTLPEETIKKLQGTMSSFGVGVDTLLTTNQDAAYCSAMAQ
modifications: biliverdin chromophore
As to B1, in series [3], the excitation maxima amounted to 375 nm and the Quantum yield is recorded as 0.016. In series [3] (UV/blue excitation), this molecule gave an Ex/Em1, emission of 675 nm and an Ex/Em1, excitation of 375 nm. In series [3] (red excitation), this molecule returned an Ex/Em1, emission of 675 nm and an Ex/Em1, excitation of 630 nm. Moreover, the “fluorescence intensity with D2O” value in series [3] (increasing concentrations of D2O, no changes in the absorbance) is “increased fluorescence intensity”. In addition, the “Molar extinction coefficient at 375 nm” value in series [4] (phosphate buffer of pH 7.4, 375 nm) is given as 21,000 M^−1 cm^−1. Also, the “Molar extinction coefficient at 630 nm” value in series [4] (phosphate buffer of pH 7.4, 630 nm) was 13,500 M^−1 cm^−1. In addition, in series [1] (overnight exposure with UV or red light), the photo-stability of fluorescence entry is recorded as “does not bleach significantly”. In addition, the bleaching of fluorescence result in series [1] (walleye mucous cells and solution, several hours of excitation and emission) is “do not bleach”. Moreover, the emission maxima in series [5] is reported as 678 nm.

B2: SFP-V71E: monomeric SFP variant V71E, SEQ ID NO:2 (protein)
chain: FIKPGRCPKPAVQEDFDAARYLGVWYDIQRLPNKFQKGECATATYSLSPGEGFSVFNRERLANGTIKSVIGSAIAEDPCEPAKLQFFHENAAPVPYWVLSTDYDNYALVYSCINLGASHAAYASIVSRQPTLPEETIKKLQGTMSSFGVGVDTLLTTNQDAAYCSAMNQ
The molecule B2 came in with a Quantum yield in series [3] of 0.003. In series [3] (UV/blue excitation), this molecule showed an Ex/Em1, emission of 670 nm and an Ex/Em1, excitation of 380 nm. In series [3] (red excitation), this molecule had an Ex/Em1, emission of 660 nm and an Ex/Em1, excitation of 600 nm.

B3: SFP-A137E: monomeric SFP variant A137E, SEQ ID NO:4 (protein)
chain: FIKPGRCPKPAVQEDFDAARYLGVWYDIQRLPNKFQKGECATATYSLSPGVGFSVFNRERLANGTIKSVIGSAIAEDPCEPAKLQFFHENAAPVPYWVLSTDYDNYALVYSCINLGESHAAYASIVSRQPTLPEETIKKLQGTMSSFGVGVDTLLTTNQDAAYCSAMNQ
In series [3], B3 displayed a Quantum yield of 0.003. In addition, in series [3] (UV/blue excitation), the Ex/Em1, emission was 663 nm and the Ex/Em1, excitation is 380 nm. In series [3] (red excitation), this molecule showed an Ex/Em1, emission of 653 nm and an Ex/Em1, excitation of 580 nm.

B4: SFP-L135E: monomeric SFP variant L135E, SEQ ID NO:3 (protein)
chain: FIKPGRCPKPAVQEDFDAARYLGVWYDIQRLPNKFQKGECATATYSLSPGVGFSVFNRERLANGTIKSVIGSAIAEDPCEPAKLQFFHENAAPVPYWVLSTDYDNYALVYSCINEGASHAAYASIVSRQPTLPEETIKKLQGTMSSFGVGVDTLLTTNQDAAYCSAMNQ
For B4, the Quantum yield in series [3] amounted to 0.025. In series [3] (UV/blue excitation), the Ex/Em1, emission came to 682 nm and the Ex/Em1, excitation amounted to 380 nm. For the same molecule, in series [3] (red excitation), the Ex/Em1, emission was found to be 676 nm and the Ex/Em1, excitation was 600 nm.

B5: SFP-VP95insGG: L135E monoSFP extended with glycine residues at position 95, SEQ ID NO:6 (protein)
chain: MFIKPGRCPKPAVQEDFDAARYLGVWYDIQRLPNKFQKGECATATYSLSPGVGFSVFNRERLANGTIKSVIGSAIAEDPCEPAKLQFFHENAAPGGVPYWVLSTDYDNYALVYSCINSFEGASHAAYASIVSRQPTLPEETIKKLQGTMSSFGVGVDTLLTTNQDAAYCSAMNQ
For B5, in series [6], the “binding to biliverdin” value is listed as “retained binding to biliverdin”. In series [3], the “brightness relative to L135E monoSFP” value was “did not show significantly increased brightness” and the Quantum yield was 0.003. Moreover, in series [3] (UV/blue excitation), the Ex/Em1, emission stood at 657 nm and the Ex/Em1, excitation was 380 nm. In series [3] (red excitation), the Ex/Em1, emission stood at 653 nm and the Ex/Em1, excitation turned out to be 570 nm.

B6: SFP-FH88insGG: L135E monoSFP extended with glycine residues at position 88, SEQ ID NO:5 (protein)
chain: MFIKPGRCPKPAVQEDFDAARYLGVWYDIQRLPNKFQKGECATATYSLSPGVGFSVFNRERLANGTIKSVIGSAIAEDPCEPAKLQFGGFHENAAPVPYWVLSTDYDNYALVYSCINEGASHAAYASIVSRQPTLPEETIKKLQGTMSSFGVGVDTLLTTNQDAAYCSAMNQ
B6: the “binding to biliverdin” value in series [6] is listed as “retained binding to biliverdin”. Moreover, in series [3], the “brightness relative to L135E monoSFP” value was “did not show significantly increased brightness” and the Quantum yield was determined as 0.002. Moreover, in series [3] (UV/blue excitation), the Ex/Em1, emission stood at 663 nm and the Ex/Em1, excitation stood at 380 nm. In series [3] (red excitation), this molecule had an Ex/Em1, emission of 653 nm and an Ex/Em1, excitation of 570 nm.
